Test results from PMC12102759 (2025).

B1: SH3BP2 peptide 408-423 (SH3 domain-binding protein 2), 16-mer library wild type / TNKS ANK (TNKS 12 ANK repeats, residues 174-649) (parent complex)
chain 1: PQLPHLQRSPPDGQSF
chain 2: TGVPAVSGALRELLEACRNGDVSRVKRLVDAANVNAKDMAGRKSSPLHFAAGFGRKDVVEHLLQMGANVHARDDGGLIPLHNACSFGHAEVVSLLLCQGADPNARDNWNYTPLHEAAIKGKIDVCIVLLQHGADPNIRNTDGKSALDLADPSAKAVLTGEYKKDELLEAARSGNEEKLMALLTPLNVNCHASDGRKSTPLHLAAGYNRVRIVQLLLQHGADVHAKDKGGLVPLHNACSYGHYEVTELLLKHGACVNAMDLWQFTPLHEAASKNRVEVCSLLLSHGADPTLVNCHGKSAVDMAPTPELRERLTYEFKGHSLLQAAREADLAKVKKTLALEIINFKQPQSHETALHCAVASLHPKRKQVTELLLRKGANVNEKNKDFMTPLHVAAERAHNDVMEVLHKHGAKMNALDTLGQTALHRAALAGHLQTCRLLLSYGSDPSIISLQGFTAAQMGNEAVQQILSESTPIRTSD
B2: CBL peptide 538-553 (E3 ubiquitin-protein ligase CBL), 16-mer library wild type / YES SH3 (YES1 SH3 domain, residues 90-152) (parent complex)
chain 1: TLRDLPPPPPPDRPYS
chain 2: not shown

Variants of: B1
Test: proteomic peptide phage display deep mutational scan (ProP-PD DMS): M13 P8 16-mer library selected against immobilised GST-tagged bait for four days (rounds), NGS of the eluted pools per day and pseudo-replica; bait immobilised on MaxiSorp plates (10 µg), library pre-cleared on GST, 2 h binding at 4 °C, five washes; one round per day, days 1-4; value from days 2 and 3

Row | Variant | screen value
1 | chain 1 PQTPHLQRSPPDGQSF [chain 1 L3T] | 0.000337 average fractional NGS count over selection days 2 and 3 (reads of this peptide / all reads for the bait, averaged over …
2 | chain 1 PQLPHLQRSPPDGQST [chain 1 F16T] | 0.000194 average fractional NGS count over selection days 2 and 3 (reads of this peptide / all reads for the bait, averaged over …
3 | chain 1 PNLPHLQRSPPDGQSF [chain 1 Q2N] | 0.000225 average fractional NGS count over selection days 2 and 3 (reads of this peptide / all reads for the bait, averaged over …
4 | chain 1 PQLPHLQRIPPDGQSF [chain 1 S9I] | 0.00144 average fractional NGS count over selection days 2 and 3 (reads of this peptide / all reads for the bait, averaged over …
5 | chain 1 PQLPHTQRSPPDGQSF [chain 1 L6T] | 0.000389 average fractional NGS count over selection days 2 and 3 (reads of this peptide / all reads for the bait, averaged over …
6 | chain 1 PQLPHLQRSEPDGQSF [chain 1 P10E] | 0.00215 average fractional NGS count over selection days 2 and 3 (reads of this peptide / all reads for the bait, averaged over …
7 | chain 1 PQLPHLQRSDPDGQSF [chain 1 P10D] | 0.000749 average fractional NGS count over selection days 2 and 3 (reads of this peptide / all reads for the bait, averaged over …
8 | chain 1 PQLPQLQRSPPDGQSF [chain 1 H5Q] | 0.00258 average fractional NGS count over selection days 2 and 3 (reads of this peptide / all reads for the bait, averaged over …
9 | chain 1 PQLPFLQRSPPDGQSF [chain 1 H5F] | 0.00112 average fractional NGS count over selection days 2 and 3 (reads of this peptide / all reads for the bait, averaged over …

Variants of: B2
Test: as above

Row | Variant | screen value
10 | chain 1 P9L | 0.000514 average fractional NGS count over selection days 2 and 3 (reads of this peptide / all reads for the bait, averaged over …
11 | chain 1 P9V | 0.000276 average fractional NGS count over selection days 2 and 3 (reads of this peptide / all reads for the bait, averaged over …
12 | chain 1 P9A | 0.000623 average fractional NGS count over selection days 2 and 3 (reads of this peptide / all reads for the bait, averaged over …
13 | chain 1 P9Q | 0.000144 average fractional NGS count over selection days 2 and 3 (reads of this peptide / all reads for the bait, averaged over …
14 | chain 1 P9S | 0.000162 average fractional NGS count over selection days 2 and 3 (reads of this peptide / all reads for the bait, averaged over …
15 | chain 1 P9N | 0.000239 average fractional NGS count over selection days 2 and 3 (reads of this peptide / all reads for the bait, averaged over …
16 | chain 1 P9R | 8.13e-05 average fractional NGS count over selection days 2 and 3 (reads of this peptide / all reads for the bait, averaged over …
17 | chain 1 D4S | 7.92e-05 average fractional NGS count over selection days 2 and 3 (reads of this peptide / all reads for the bait, averaged over …
18 | chain 1 D4A | 0.000274 average fractional NGS count over selection days 2 and 3 (reads of this peptide / all reads for the bait, averaged over …
19 | chain 1 D4Y | 0.00195 average fractional NGS count over selection days 2 and 3 (reads of this peptide / all reads for the bait, averaged over …
20 | chain 1 D4T | 0.00181 average fractional NGS count over selection days 2 and 3 (reads of this peptide / all reads for the bait, averaged over …
21 | chain 1 D4P | 0.00043 average fractional NGS count over selection days 2 and 3 (reads of this peptide / all reads for the bait, averaged over …
22 | chain 1 D4K | 0.000375 average fractional NGS count over selection days 2 and 3 (reads of this peptide / all reads for the bait, averaged over …
23 | chain 1 D4M | 0.0013 average fractional NGS count over selection days 2 and 3 (reads of this peptide / all reads for the bait, averaged over …
24 | chain 1 D4H | 0.000257 average fractional NGS count over selection days 2 and 3 (reads of this peptide / all reads for the bait, averaged over …
25 | chain 1 D4F | 5.77e-05 average fractional NGS count over selection days 2 and 3 (reads of this peptide / all reads for the bait, averaged over …
26 | chain 1 D4I | 0.00256 average fractional NGS count over selection days 2 and 3 (reads of this peptide / all reads for the bait, averaged over …
27 | chain 1 L5F | 6.9e-05 average fractional NGS count over selection days 2 and 3 (reads of this peptide / all reads for the bait, averaged over …
28 | chain 1 L5V | 6.39e-05 average fractional NGS count over selection days 2 and 3 (reads of this peptide / all reads for the bait, averaged over …
29 | chain 1 L5I | 5.25e-05 average fractional NGS count over selection days 2 and 3 (reads of this peptide / all reads for the bait, averaged over …
30 | chain 1 P7H | 7.35e-05 average fractional NGS count over selection days 2 and 3 (reads of this peptide / all reads for the bait, averaged over …
31 | chain 1 P7V | 0.00339 average fractional NGS count over selection days 2 and 3 (reads of this peptide / all reads for the bait, averaged over …

Row | Variant | screen value
32 | chain 1 P7G | 0.000231 average fractional NGS count over selection days 2 and 3 (reads of this peptide / all reads for the bait, averaged over …
33 | chain 1 P7T | 0.000231 average fractional NGS count over selection days 2 and 3 (reads of this peptide / all reads for the bait, averaged over …
34 | chain 1 P7K | 0.000378 average fractional NGS count over selection days 2 and 3 (reads of this peptide / all reads for the bait, averaged over …
35 | chain 1 P7M | 0.000243 average fractional NGS count over selection days 2 and 3 (reads of this peptide / all reads for the bait, averaged over …
36 | chain 1 P7I | 0.00214 average fractional NGS count over selection days 2 and 3 (reads of this peptide / all reads for the bait, averaged over …
37 | chain 1 P7A | 0.00162 average fractional NGS count over selection days 2 and 3 (reads of this peptide / all reads for the bait, averaged over …
38 | chain 1 P7N | 0.000153 average fractional NGS count over selection days 2 and 3 (reads of this peptide / all reads for the bait, averaged over …
39 | chain 1 P7L | 0.000549 average fractional NGS count over selection days 2 and 3 (reads of this peptide / all reads for the bait, averaged over …
40 | chain 1 S16H | 0.00402 average fractional NGS count over selection days 2 and 3 (reads of this peptide / all reads for the bait, averaged over …
41 | chain 1 S16M | 0.00227 average fractional NGS count over selection days 2 and 3 (reads of this peptide / all reads for the bait, averaged over …
42 | chain 1 S16L | 0.000883 average fractional NGS count over selection days 2 and 3 (reads of this peptide / all reads for the bait, averaged over …
43 | chain 1 S16A | 0.00886 average fractional NGS count over selection days 2 and 3 (reads of this peptide / all reads for the bait, averaged over …
44 | chain 1 S16Y | 0.000405 average fractional NGS count over selection days 2 and 3 (reads of this peptide / all reads for the bait, averaged over …
45 | chain 1 S16D | 0.00258 average fractional NGS count over selection days 2 and 3 (reads of this peptide / all reads for the bait, averaged over …
46 | chain 1 S16P | 0.00387 average fractional NGS count over selection days 2 and 3 (reads of this peptide / all reads for the bait, averaged over …
47 | chain 1 S16I | 0.00716 average fractional NGS count over selection days 2 and 3 (reads of this peptide / all reads for the bait, averaged over …
48 | chain 1 S16K | 0.00025 average fractional NGS count over selection days 2 and 3 (reads of this peptide / all reads for the bait, averaged over …
49 | chain 1 S16Q | 9.78e-05 average fractional NGS count over selection days 2 and 3 (reads of this peptide / all reads for the bait, averaged over …
50 | chain 1 R3P | 8.03e-05 average fractional NGS count over selection days 2 and 3 (reads of this peptide / all reads for the bait, averaged over …
51 | chain 1 R3D | 8.49e-05 average fractional NGS count over selection days 2 and 3 (reads of this peptide / all reads for the bait, averaged over …
52 | chain 1 R3V | 0.000502 average fractional NGS count over selection days 2 and 3 (reads of this peptide / all reads for the bait, averaged over …
53 | chain 1 R3M | 0.000204 average fractional NGS count over selection days 2 and 3 (reads of this peptide / all reads for the bait, averaged over …

Row | Variant | screen value
54 | chain 1 R3A | 0.00047 average fractional NGS count over selection days 2 and 3 (reads of this peptide / all reads for the bait, averaged over …
55 | chain 1 R3W | 0.00019 average fractional NGS count over selection days 2 and 3 (reads of this peptide / all reads for the bait, averaged over …
56 | chain 1 R3F | 0.000372 average fractional NGS count over selection days 2 and 3 (reads of this peptide / all reads for the bait, averaged over …
57 | chain 1 R3S | 0.000276 average fractional NGS count over selection days 2 and 3 (reads of this peptide / all reads for the bait, averaged over …
58 | chain 1 R3N | 0.000239 average fractional NGS count over selection days 2 and 3 (reads of this peptide / all reads for the bait, averaged over …
59 | chain 1 R3G | 0.00132 average fractional NGS count over selection days 2 and 3 (reads of this peptide / all reads for the bait, averaged over …
60 | chain 1 R3L | 7.89e-05 average fractional NGS count over selection days 2 and 3 (reads of this peptide / all reads for the bait, averaged over …
61 | chain 1 R3I | 0.000159 average fractional NGS count over selection days 2 and 3 (reads of this peptide / all reads for the bait, averaged over …
62 | chain 1 R3K | 0.000536 average fractional NGS count over selection days 2 and 3 (reads of this peptide / all reads for the bait, averaged over …
63 | chain 1 P10Q | 0.000423 average fractional NGS count over selection days 2 and 3 (reads of this peptide / all reads for the bait, averaged over …
64 | chain 1 P10F | 0.0021 average fractional NGS count over selection days 2 and 3 (reads of this peptide / all reads for the bait, averaged over …
65 | chain 1 P10E | 0.00012 average fractional NGS count over selection days 2 and 3 (reads of this peptide / all reads for the bait, averaged over …
66 | chain 1 P10L | 0.000964 average fractional NGS count over selection days 2 and 3 (reads of this peptide / all reads for the bait, averaged over …
67 | chain 1 P10A | 0.000136 average fractional NGS count over selection days 2 and 3 (reads of this peptide / all reads for the bait, averaged over …
68 | chain 1 P10W | 0.00035 average fractional NGS count over selection days 2 and 3 (reads of this peptide / all reads for the bait, averaged over …
69 | chain 1 P10S | 0.00132 average fractional NGS count over selection days 2 and 3 (reads of this peptide / all reads for the bait, averaged over …
70 | chain 1 P10M | 0.000512 average fractional NGS count over selection days 2 and 3 (reads of this peptide / all reads for the bait, averaged over …
71 | chain 1 P10N | 0.000197 average fractional NGS count over selection days 2 and 3 (reads of this peptide / all reads for the bait, averaged over …
72 | chain 1 P10H | 0.00108 average fractional NGS count over selection days 2 and 3 (reads of this peptide / all reads for the bait, averaged over …
73 | chain 1 P10Y | 0.00108 average fractional NGS count over selection days 2 and 3 (reads of this peptide / all reads for the bait, averaged over …
